# Numbered stars: 1 amine (or outer) side, 2 acyl side, 3 side chain; on linkers, the order of the positions; unused ones are H or OH. Square brackets hold non-standard residues; d marks the D form. Side chains are listed from the residue outwards. * marks the point of attachment. γGlu = O=C(O)[C@H](CCC(=O)[*:2])N[*:1]; Palmitoyl = CCCCCCCCCCCCCCCC(=O)*; Aib = CC(C)(N)C(=O)O
# B1: Compound 8 (peptide)
# peptide: H-HSQGTFTSDYSKYLDSK([γGlu-Palmitoyl])AAHDFVEWLLS-NH2
# SMILES: CCCCCCCCCCCCCCCC(=O)N[C@@H](CCC(=O)NCCCC[C@H](NC(=O)[C@H](CO)NC(=O)[C@H](CC(=O)O)NC(=O)[C@H](CC(C)C)NC(=O)[C@H](Cc1ccc(O)cc1)NC(=O)[C@H](CCCCN)NC(=O)[C@H](CO)NC(=O)[C@H](Cc1ccc(O)cc1)NC(=O)[C@H](CC(=O)O)NC(=O)[C@H](CO)NC(=O)[C@@H](NC(=O)[C@H](Cc1ccccc1)NC(=O)[C@@H](NC(=O)CNC(=O)[C@H](CCC(N)=O)NC(=O)[C@H](CO)NC(=O)[C@@H](N)Cc1c[nH]cn1)[C@@H](C)O)[C@@H](C)O)C(=O)N[C@@H](C)C(=O)N[C@@H](C)C(=O)N[C@@H](Cc1c[nH]cn1)C(=O)N[C@@H](CC(=O)O)C(=O)N[C@@H](Cc1ccccc1)C(=O)N[C@H](C(=O)N[C@@H](CCC(=O)O)C(=O)N[C@@H](Cc1c[nH]c2ccccc12)C(=O)N[C@@H](CC(C)C)C(=O)N[C@@H](CC(C)C)C(=O)N[C@@H](CO)C(N)=O)C(C)C)C(=O)O
# B2: Compound 9 (peptide)
# peptide: H-HSQGTFTSDYSKYLDSK([γGlu-Palmitoyl])AAHDFVEWLLR-OH
# SMILES: CCCCCCCCCCCCCCCC(=O)N[C@@H](CCC(=O)NCCCC[C@H](NC(=O)[C@H](CO)NC(=O)[C@H](CC(=O)O)NC(=O)[C@H](CC(C)C)NC(=O)[C@H](Cc1ccc(O)cc1)NC(=O)[C@H](CCCCN)NC(=O)[C@H](CO)NC(=O)[C@H](Cc1ccc(O)cc1)NC(=O)[C@H](CC(=O)O)NC(=O)[C@H](CO)NC(=O)[C@@H](NC(=O)[C@H](Cc1ccccc1)NC(=O)[C@@H](NC(=O)CNC(=O)[C@H](CCC(N)=O)NC(=O)[C@H](CO)NC(=O)[C@@H](N)Cc1c[nH]cn1)[C@@H](C)O)[C@@H](C)O)C(=O)N[C@@H](C)C(=O)N[C@@H](C)C(=O)N[C@@H](Cc1c[nH]cn1)C(=O)N[C@@H](CC(=O)O)C(=O)N[C@@H](Cc1ccccc1)C(=O)N[C@H](C(=O)N[C@@H](CCC(=O)O)C(=O)N[C@@H](Cc1c[nH]c2ccccc12)C(=O)N[C@@H](CC(C)C)C(=O)N[C@@H](CC(C)C)C(=O)N[C@@H](CCCNC(=N)N)C(=O)O)C(C)C)C(=O)O
# B3: Compound 7 (peptide)
# peptide: H-HSQGTFTSDYSKYLDSK([γGlu-Palmitoyl])AAEDFVEWLLRA-NH2
# SMILES: CCCCCCCCCCCCCCCC(=O)N[C@@H](CCC(=O)NCCCC[C@H](NC(=O)[C@H](CO)NC(=O)[C@H](CC(=O)O)NC(=O)[C@H](CC(C)C)NC(=O)[C@H](Cc1ccc(O)cc1)NC(=O)[C@H](CCCCN)NC(=O)[C@H](CO)NC(=O)[C@H](Cc1ccc(O)cc1)NC(=O)[C@H](CC(=O)O)NC(=O)[C@H](CO)NC(=O)[C@@H](NC(=O)[C@H](Cc1ccccc1)NC(=O)[C@@H](NC(=O)CNC(=O)[C@H](CCC(N)=O)NC(=O)[C@H](CO)NC(=O)[C@@H](N)Cc1c[nH]cn1)[C@@H](C)O)[C@@H](C)O)C(=O)N[C@@H](C)C(=O)N[C@@H](C)C(=O)N[C@@H](CCC(=O)O)C(=O)N[C@@H](CC(=O)O)C(=O)N[C@@H](Cc1ccccc1)C(=O)N[C@H](C(=O)N[C@@H](CCC(=O)O)C(=O)N[C@@H](Cc1c[nH]c2ccccc12)C(=O)N[C@@H](CC(C)C)C(=O)N[C@@H](CC(C)C)C(=O)N[C@@H](CCCNC(=N)N)C(=O)N[C@@H](C)C(N)=O)C(C)C)C(=O)O
# B4: Compound 12 (peptide)
# peptide: H-HSQGTFTSDYSRYLDSK([γGlu-Palmitoyl])AAHDFVEWLLSA-NH2
# SMILES: CCCCCCCCCCCCCCCC(=O)N[C@@H](CCC(=O)NCCCC[C@H](NC(=O)[C@H](CO)NC(=O)[C@H](CC(=O)O)NC(=O)[C@H](CC(C)C)NC(=O)[C@H](Cc1ccc(O)cc1)NC(=O)[C@H](CCCNC(=N)N)NC(=O)[C@H](CO)NC(=O)[C@H](Cc1ccc(O)cc1)NC(=O)[C@H](CC(=O)O)NC(=O)[C@H](CO)NC(=O)[C@@H](NC(=O)[C@H](Cc1ccccc1)NC(=O)[C@@H](NC(=O)CNC(=O)[C@H](CCC(N)=O)NC(=O)[C@H](CO)NC(=O)[C@@H](N)Cc1c[nH]cn1)[C@@H](C)O)[C@@H](C)O)C(=O)N[C@@H](C)C(=O)N[C@@H](C)C(=O)N[C@@H](Cc1c[nH]cn1)C(=O)N[C@@H](CC(=O)O)C(=O)N[C@@H](Cc1ccccc1)C(=O)N[C@H](C(=O)N[C@@H](CCC(=O)O)C(=O)N[C@@H](Cc1c[nH]c2ccccc12)C(=O)N[C@@H](CC(C)C)C(=O)N[C@@H](CC(C)C)C(=O)N[C@@H](CO)C(=O)N[C@@H](C)C(N)=O)C(C)C)C(=O)O
# B5: Compound 10 (peptide)
# peptide: H-HSQGTFTSDYSKYLDEK([γGlu-Palmitoyl])AAHEFVEWLESA-NH2
# SMILES: CCCCCCCCCCCCCCCC(=O)N[C@@H](CCC(=O)NCCCC[C@H](NC(=O)[C@H](CCC(=O)O)NC(=O)[C@H](CC(=O)O)NC(=O)[C@H](CC(C)C)NC(=O)[C@H](Cc1ccc(O)cc1)NC(=O)[C@H](CCCCN)NC(=O)[C@H](CO)NC(=O)[C@H](Cc1ccc(O)cc1)NC(=O)[C@H](CC(=O)O)NC(=O)[C@H](CO)NC(=O)[C@@H](NC(=O)[C@H](Cc1ccccc1)NC(=O)[C@@H](NC(=O)CNC(=O)[C@H](CCC(N)=O)NC(=O)[C@H](CO)NC(=O)[C@@H](N)Cc1c[nH]cn1)[C@@H](C)O)[C@@H](C)O)C(=O)N[C@@H](C)C(=O)N[C@@H](C)C(=O)N[C@@H](Cc1c[nH]cn1)C(=O)N[C@@H](CCC(=O)O)C(=O)N[C@@H](Cc1ccccc1)C(=O)N[C@H](C(=O)N[C@@H](CCC(=O)O)C(=O)N[C@@H](Cc1c[nH]c2ccccc12)C(=O)N[C@@H](CC(C)C)C(=O)N[C@@H](CCC(=O)O)C(=O)N[C@@H](CO)C(=O)N[C@@H](C)C(N)=O)C(C)C)C(=O)O
# B6: Compound 14 (peptide)
# peptide: H-H[Aib]QGTFTSDYSKYLDEK([γGlu-Palmitoyl])RAKDFIEWLLSA-OH
# SMILES: CCCCCCCCCCCCCCCC(=O)N[C@@H](CCC(=O)NCCCC[C@H](NC(=O)[C@H](CCC(=O)O)NC(=O)[C@H](CC(=O)O)NC(=O)[C@H](CC(C)C)NC(=O)[C@H](Cc1ccc(O)cc1)NC(=O)[C@H](CCCCN)NC(=O)[C@H](CO)NC(=O)[C@H](Cc1ccc(O)cc1)NC(=O)[C@H](CC(=O)O)NC(=O)[C@H](CO)NC(=O)[C@@H](NC(=O)[C@H](Cc1ccccc1)NC(=O)[C@@H](NC(=O)CNC(=O)[C@H](CCC(N)=O)NC(=O)C(C)(C)NC(=O)[C@@H](N)Cc1c[nH]cn1)[C@@H](C)O)[C@@H](C)O)C(=O)N[C@@H](CCCNC(=N)N)C(=O)N[C@@H](C)C(=O)N[C@@H](CCCCN)C(=O)N[C@@H](CC(=O)O)C(=O)N[C@@H](Cc1ccccc1)C(=O)N[C@H](C(=O)N[C@@H](CCC(=O)O)C(=O)N[C@@H](Cc1c[nH]c2ccccc12)C(=O)N[C@@H](CC(C)C)C(=O)N[C@@H](CC(C)C)C(=O)N[C@@H](CO)C(=O)N[C@@H](C)C(=O)O)[C@@H](C)CC)C(=O)O
# Target: human glucagon receptor (Glucagon-R) (human, UniProt P47871 26-477)
# Sequence (P47871 26-477): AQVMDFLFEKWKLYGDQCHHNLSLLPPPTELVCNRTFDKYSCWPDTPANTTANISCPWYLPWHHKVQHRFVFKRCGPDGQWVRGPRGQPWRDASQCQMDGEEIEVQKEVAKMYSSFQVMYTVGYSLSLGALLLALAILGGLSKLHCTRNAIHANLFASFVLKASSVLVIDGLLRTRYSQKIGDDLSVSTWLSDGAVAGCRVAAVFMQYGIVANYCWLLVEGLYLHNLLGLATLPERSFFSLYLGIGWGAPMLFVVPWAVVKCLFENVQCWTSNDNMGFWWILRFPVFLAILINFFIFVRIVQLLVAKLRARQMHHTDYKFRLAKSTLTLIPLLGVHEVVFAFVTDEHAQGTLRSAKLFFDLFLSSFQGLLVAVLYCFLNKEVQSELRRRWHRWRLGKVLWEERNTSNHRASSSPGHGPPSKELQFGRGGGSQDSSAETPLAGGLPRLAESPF
# Assay: cell-based or functional assay
row,Binder,EC50 hGCGR CHO-K1 [nM] (cAMP)
1,B1,0.29 nM
2,B2,0.25 nM
3,HXQGTFTSDYSKYLDSXAAHDFVEWLLSA (Aib at position 2; Lys 17 K(Hexadecanoyl-isoGlu); C-terminal -OH) [Compound 13],0.98 nM
4,B3,0.45 nM
5,B4,0.43 nM
6,B5,0.23 nM
7,HXQGTFTSDYSKYLDEXAAKDFIEWLESA (Aib at position 2; Lys 17 K(Hexadecanoyl-isoGlu); C-terminal amide (-NH2)) [Compound 15],0.61 nM
8,B6,0.54 nM

# Target: human glucagon-like peptide 1 receptor (GLP-1R) (human, UniProt P43220 24-463)
# Assay: cell-based or functional assay
Binder,EC50 hGLP-1R CHO-K1 [nM] (cAMP),Ratio GLP-1/Glucagon (EC50 hGLP-1R / EC50 hGCGR)
B1,0.41 nM,1.41 ratio
B2,0.35 nM,1.4 ratio
HXQGTFTSDYSKYLDSXAAHDFVEWLLSA (Aib at position 2; Lys 17 K(Hexadecanoyl-isoGlu); C-terminal -OH) [Compound 13],0.51 nM,0.52 ratio
B3,0.27 nM,0.6 ratio
B4,0.37 nM,0.86 ratio
B5,0.23 nM,1 ratio
HXQGTFTSDYSKYLDEXAAKDFIEWLESA (Aib at position 2; Lys 17 K(Hexadecanoyl-isoGlu); C-terminal amide (-NH2)) [Compound 15],0.19 nM,0.31 ratio
B6,0.53 nM,0.98 ratio

# Target: endogenous glucagon receptor of primary rat hepatocytes (rat, UniProt P30082 27-485)
# Sequence (P30082 27-485): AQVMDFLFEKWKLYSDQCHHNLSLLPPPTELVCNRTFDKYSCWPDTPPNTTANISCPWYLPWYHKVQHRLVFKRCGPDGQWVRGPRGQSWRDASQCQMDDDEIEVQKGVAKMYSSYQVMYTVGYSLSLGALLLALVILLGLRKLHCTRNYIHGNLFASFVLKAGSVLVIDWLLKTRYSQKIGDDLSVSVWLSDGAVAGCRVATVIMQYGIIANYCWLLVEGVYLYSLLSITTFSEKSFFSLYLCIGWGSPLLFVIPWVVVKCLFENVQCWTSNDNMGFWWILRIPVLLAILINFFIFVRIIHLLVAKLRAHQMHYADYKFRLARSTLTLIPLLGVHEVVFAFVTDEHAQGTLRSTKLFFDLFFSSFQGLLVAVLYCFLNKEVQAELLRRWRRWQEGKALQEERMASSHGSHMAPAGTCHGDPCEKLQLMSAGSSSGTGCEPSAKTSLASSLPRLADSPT
# Assay: cell-based or functional assay
row,Binder,EC50 GLP-1R Rat hepat. [nM] (inhibition of glycogen synthesis)
1,B1,1.1 nM
2,B2,0.37 nM
3,HXQGTFTSDYSKYLDSXAAHDFVEWLLSA (Aib at position 2; Lys 17 K(Hexadecanoyl-isoGlu); C-terminal -OH) [Compound 13],0.67 nM
4,B3,1.92 nM
5,B4,0.24 nM
6,B5,0.04 nM
7,HXQGTFTSDYSKYLDEXAAKDFIEWLESA (Aib at position 2; Lys 17 K(Hexadecanoyl-isoGlu); C-terminal amide (-NH2)) [Compound 15],0.17 nM
8,B6,0.1 nM

# Target: T1, endogenous GLP-1 receptor of a murine insulinoma cell line (murine, UniProt O35659 22-463)
# T1 sequence (looked up): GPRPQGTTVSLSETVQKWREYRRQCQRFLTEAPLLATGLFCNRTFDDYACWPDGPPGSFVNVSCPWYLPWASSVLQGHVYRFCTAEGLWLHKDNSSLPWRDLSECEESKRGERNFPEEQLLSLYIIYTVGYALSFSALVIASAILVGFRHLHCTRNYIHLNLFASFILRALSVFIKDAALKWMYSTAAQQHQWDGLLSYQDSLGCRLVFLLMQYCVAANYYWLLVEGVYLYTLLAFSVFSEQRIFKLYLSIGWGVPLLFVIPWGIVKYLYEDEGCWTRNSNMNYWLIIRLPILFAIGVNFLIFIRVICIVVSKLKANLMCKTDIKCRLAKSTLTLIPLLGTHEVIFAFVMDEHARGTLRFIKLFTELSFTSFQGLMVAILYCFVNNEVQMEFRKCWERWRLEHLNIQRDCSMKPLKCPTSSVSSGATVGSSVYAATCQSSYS
# Assay: cell-based or functional assay
row,Binder,EC50 GLP-1R (murine insulinoma cells) [nM] (cAMP)
1,B1,0.95 nM
2,B2,1.02 nM
3,HXQGTFTSDYSKYLDSXAAHDFVEWLLSA (Aib at position 2; Lys 17 K(Hexadecanoyl-isoGlu); C-terminal -OH) [Compound 13],1.06 nM
4,B3,0.84 nM
5,B4,1.62 nM
6,B5,0.33 nM
7,HXQGTFTSDYSKYLDEXAAKDFIEWLESA (Aib at position 2; Lys 17 K(Hexadecanoyl-isoGlu); C-terminal amide (-NH2)) [Compound 15],0.3 nM
8,B6,0.72 nM
